# Source: publication PMC3210814
# B1: recombinant SdPI peptide (scorpion-derived protease inhibitor), wild type (peptide)
# chain: KNKCQLPSDVGKGKASFTRYYYNEEGGKCETFIYGGVGGNSNNFLTKEDCCRECAQGSC
# B2: SdPI Ala15Phe mutant (peptide)
# chain: KNKCQLPSDVGKGKFSFTRYYYNEEGGKCETFIYGGVGGNSNNFLTKEDCCRECAQGSC
# B3: SdPI G13F mutant (peptide)
# chain: KNKCQLPSDVGKFKASFTRYYYNEEGGKCETFIYGGVGGNSNNFLTKEDCCRECAQGSC
# B4: SdPI K12A mutant (peptide)
# chain: KNKCQLPSDVGAGKASFTRYYYNEEGGKCETFIYGGVGGNSNNFLTKEDCCRECAQGSC
# Tests used:
# [1] = target: bovine pancreatic trypsin (bovine); assay: enzyme inhibition assay (chromogenic substrate), Lineweaver-Burk plots and replot of the slopes; trypsin 400 nM pre-incubated with the inhibitor for 30 min; 100 mM Tris-HCl pH 8.0, 10 mM CaCl2, 25°C; substrate Nα-benzoyl-L-arginine 4-nitroanilide 0.1 to 0.8 mM; p-nitroaniline read at 405 nm for 5 min
# Chain of bovine pancreatic trypsin (bovine) (P00760 24-246): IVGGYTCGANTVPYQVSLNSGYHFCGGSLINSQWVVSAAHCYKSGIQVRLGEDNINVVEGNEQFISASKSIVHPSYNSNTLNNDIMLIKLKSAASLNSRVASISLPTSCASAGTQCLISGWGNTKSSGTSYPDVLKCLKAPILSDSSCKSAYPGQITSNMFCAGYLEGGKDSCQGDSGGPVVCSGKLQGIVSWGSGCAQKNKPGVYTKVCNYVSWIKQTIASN
# [2] = target: bovine pancreatic trypsin (bovine); assay: enzyme inhibition assay (chromogenic substrate), inhibition against inhibitor concentration; trypsin 400 nM incubated with 0 to 400 nM rSdPI for 30 min; 100 mM Tris-HCl pH 8.0, 10 mM CaCl2, 25°C
Binder,Ki [1] [nM],stoichiometry N [2]
B1,160,1
B2,62000,
B3,260,
B4,290,
